Results as given in patent US20090175789A1.

Target: human LDL (Low Density Lipoprotein) receptor (human) (UniProt P01130)
Experiment: competition by flow cytometry on A549 cells: unlabelled LDLs (varied, 16-fold excess) reduce the binding of 12G4 (30 µg/mL) to LDL-R

Chain of human LDL (Low Density Lipoprotein) receptor (human) (P01130 22-860): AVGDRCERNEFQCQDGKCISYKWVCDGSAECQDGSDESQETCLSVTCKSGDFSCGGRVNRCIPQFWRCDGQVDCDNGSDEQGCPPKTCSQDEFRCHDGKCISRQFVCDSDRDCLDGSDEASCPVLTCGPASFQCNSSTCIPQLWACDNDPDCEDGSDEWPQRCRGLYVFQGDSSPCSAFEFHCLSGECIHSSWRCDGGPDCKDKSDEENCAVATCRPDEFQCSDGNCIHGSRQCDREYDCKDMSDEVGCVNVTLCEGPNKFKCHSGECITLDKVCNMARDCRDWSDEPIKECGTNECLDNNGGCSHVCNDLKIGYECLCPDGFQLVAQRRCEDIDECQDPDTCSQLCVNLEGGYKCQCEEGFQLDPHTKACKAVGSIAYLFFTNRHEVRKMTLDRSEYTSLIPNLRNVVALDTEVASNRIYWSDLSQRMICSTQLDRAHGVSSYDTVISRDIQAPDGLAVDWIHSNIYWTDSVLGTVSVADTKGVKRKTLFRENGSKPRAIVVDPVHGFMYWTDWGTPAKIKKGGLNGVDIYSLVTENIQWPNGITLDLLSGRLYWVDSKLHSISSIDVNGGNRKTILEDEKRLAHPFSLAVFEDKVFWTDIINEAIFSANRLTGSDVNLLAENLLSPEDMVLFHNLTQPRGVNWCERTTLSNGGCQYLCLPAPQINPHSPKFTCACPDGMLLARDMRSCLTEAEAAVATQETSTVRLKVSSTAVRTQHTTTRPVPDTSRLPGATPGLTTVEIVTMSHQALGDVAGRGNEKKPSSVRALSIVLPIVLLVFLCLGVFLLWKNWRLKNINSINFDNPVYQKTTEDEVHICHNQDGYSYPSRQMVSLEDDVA

A reduction in the bond of 60% was found for “LDLs (Low Density Lipoproteins) (from UniProt P04114 28-4563) (ligand)” in this work.
